Laboratory results reported in the supplement of paper PMC5998384.

Experiments:
HeLa Kyoto [1] = experiment: solubility in G1/S (NP-40 vs SDS abundance) (log2 ratio); higher = more soluble; conditions: cell cycle stage: G1/S
HeLa Kyoto [2] = experiment: melting temperature (median over replicates), in situ; higher = more thermally stable
HeLa Kyoto [3] = experiment: thermal stability score vs G1/S (z-score of summed log2 fold changes over temperatures); higher = more thermally stable than in G1/S
HeLa Kyoto [4] = experiment: solubility change mitosis vs G1/S (difference of NP-40 vs SDS log2 ratios) (log2 ratio difference); higher = more soluble in mitosis
[5] = cell cycle stage: early G1 (4.5 h after nocodazole release)
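Wherever melting temperature (median over replicates), in situ is given: HeLa Kyoto cells synchronized by double thymidine or nocodazole block, proteins quantified by TMT10plex mass spectrometry, three independent biological replicates.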
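Wherever solubility change mitosis vs G1/S (difference of NP-40 vs SDS log2 ratios) is given: synchronized HeLa Kyoto cells (double thymidine block for G1/S, nocodazole release for mitosis), protein amounts in NP-40 versus SDS lysates quantified by mass spectrometry, three biological replicates.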
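Wherever solubility in G1/S (NP-40 vs SDS abundance) is given: HeLa Kyoto cells arrested at G1/S by double thymidine block, proteins quantified by TMT10plex mass spectrometry in mild NP-40 versus SDS extracts, three biological replicates.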
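Wherever thermal stability score vs G1/S (z-score of summed log2 fold changes over temperatures) is given: synchronized HeLa Kyoto cells, proteins quantified by TMT10plex mass spectrometry, three biological replicates, mitosis taken 0.5 h after nocodazole release, G1/S directly after double thymidine block.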

Row | Sequence | solubility in G1/S (log2) (HeLa Kyoto [1]) | melting temperature (HeLa Kyoto [2]; cell cycle stage: G1/S) [°C] | melting temperature (HeLa Kyoto [2]; cell cycle stage: mitosis) [°C] | thermal stability score (HeLa Kyoto [3]; [5]) | thermal stability score (HeLa Kyoto [3]; cell cycle stage: mitosis) | solubility change mitosis (log2) (HeLa Kyoto [4])
1 | MSPTISHKDSSRQRRPGNFSHSLDMKSGPLPPGGWDDSHLDSAGREGDREALLGDTGTGDFLKAPQSFRAELSSILLLLFLYVLQGIPLGLAGSIPLILQSKNVSYTDQAFFSFVFWPFSLKLLWAPLVDAVYVKNFGRRKSWLVPTQYILGLFMIYLSTQVDRLLGNTDDRTPDVIALTVAFFLFEFLAATQDIAVDGWALTMLSRENVGYASTCNSVGQTAGYFLGNVLFLALESADFCNKYLRFQPQPRGIVTLSDFLFFWGTVFLITTTLVALLKKENEVSVVKEETQGITDTYKLLFAIIKMPAVLTFCLLILTAKIGFSAADAVTGLKLVEEGVPKEHLALLAVPMVPLQIILPLIISKYTAGPQPLNTFYKAMPYRLLLGLEYALLVWWTPKVEHQGGFPIYYYIVVLLSYALHQVTVYSMYVSIMAFNAKVSDPLIGGTYMTLLNTVSNLGGNWPSTVALWLVDPLTVKECVGASNQNCRTPDAVELCKKLGGSCVTALDGYYVESIICVFIGFGWWFFLGPKFKKLQDEGSSSWKCKRNN [SLC33A1] | -0.0645 | 58.5 | 57.9 | -1.24 | -1.12 | -0.141
2 | MSQSGAVSCCPGATNGSLGRSDGVAKMSPKDLFEQRKKYSNSNVIMHETSQYHVQHLATFIMDKSEAITSVDDAIRKLVQLSSKEKIWTQEMLLQVNDQSLRLLDIESQEELEDFPLPTVQRSQTVLNQLRYPSVLLLVCQDSEQSKPDVHFFHCDEVEAELVHEDIESALADCRLGKKMRPQTLKGHQEKIRQRQSILPPPQGPAPIPFQHRGGDSPEAKNRVGPQVPLSEPGFRRRESQEEPRAVLAQKIEKETQILNCALDDIEWFVARLQKAAEAFKQLNQRKKGKKKGKKAPAEGVLTLRARPPSEGEFIDCFQKIKLAINLLAKLQKHIQNPSAAELVHFLFGPLDLIVNTCSGPDIARSVSCPLLSRDAVDFLRGHLVPKEMSLWESLGESWMRPRSEWPREPQVPLYVPKFHSGWEPPVDVLQEAPWEVEGLASAPIEEVSPVSRQSIRNSQKHSPTSEPTPPGDALPPVSSPHTHRGYQPTPAMAKYVKILYDFTARNANELSVLKDEVLEVLEDGRQWWKLRSRSGQAGYVPCNILGEARPEDAGAPFEQAGQKYWGPASPTHKLPPSFPGNKDELMQHMDEVNDELIRKISNIRAQPQRHFRVERSQPVSQPLTYESGPDEVRAWLEAKAFSPRIVENLGILTGPQLFSLNKEELKKVCGEEGVRVYSQLTMQKAFLEKQQSGSELEELMNKFHSMNQRRGEDS [EPS8L2] | 0.468 | 50.4 | 50.1 | 0.00646 | 0.475 | -0.0548
3 | MSRDRFRSRGGGGGGFHRRGGGGGRGGLHDFRSPPPGMGLNQNRGPMGPGPGQSGPKPPIPPPPPHQQQQQPPPQQPPPQQPPPHQPPPHPQPHQQQQPPPPPQDSSKPVVAQGPGPAPGVGSAPPASSSAPPATPPTSGAPPGSGPGPTPTPPPAVTSAPPGAPPPTPPSSGVPTTPPQAGGPPPPPAAVPGPGPGPKQGPGPGGPKGGKMPGGPKPGGGPGLSTPGGHPKPPHRGGGEPRGGRQHHPPYHQQHHQGPPPGGPGGRSEEKISDSEGFKANLSLLRRPGEKTYTQRCRLFVGNLPADITEDEFKRLFAKYGEPGEVFINKGKGFGFIKLESRALAEIAKAELDDTPMRGRQLRVRFATHAAALSVRNLSPYVSNELLEEAFSQFGPIERAVVIVDDRGRSTGKGIVEFASKPAARKAFERCSEGVFLLTTTPRPVIVEPLEQLDDEDGLPEKLAQKNPMYQKERETPPRFAQHGTFEYEYSQRWKSLDEMEKQQREQVEKNMKDAKDKLESEMEDAYHEHQANLLRQDLMRRQEELRRMEELHNQEMQKRKEMQLRQEEERRRREEEMMIRQREMEEQMRRQREESYSRMGYMDPRERDMRMGGGGAMNMGDPYGSGGQKFPPLGGGGGIGYEANPGVPPATMSGSMMGSDMRTERFGQGGAGPVGGQGPRGMGPGTPAGYGRGREEYEGPNKKPRF [SFPQ] | -0.264 | 47.7 | 48.9 | 4.77 | 7.88 | 0.67
4 | MSRFPAVAGRAPRRQEEGERSRDLQEERLSAVCIADREEKGCTSQEGGTTPTFPIQKQRKKIIQAVRDNSFLIVTGNTGSGKTTQLPKYLYEAGFSQHGMIGVTQPRKVAAISVAQRVAEEMKCTLGSKVGYQVRFDDCSSKETAIKYMTDGCLLKHILGDPNLTKFSVIILDEAHERTLTTDILFGLLKKLFQEKSPNRKEHLKVVVMSATMELAKLSAFFGNCPIFDIPGRLYPVREKFCNLIGPRDRENTAYIQAIVKVTMDIHLNEMAGDILVFLTGQFEIEKSCELLFQMAESVDYDYDVQDTTLDGLLILPCYGSMTTDQQRRIFLPPPPGIRKCVISTNISATSLTIDGIRYVVDGGFVKQLNHNPRLGLDILEVVPISKSEALQRSGRAGRTSSGKCFRIYSKDFWNQCMPDHVIPEIKRTSLTSVVLTLKCLAIHDVIRFPYLDPPNERLILEALKQLYQCDAIDRSGHVTRLGLSMVEFPLPPHLTCAVIKAASLDCEDLLLPIAAMLSVENVFIRPVDPEYQKEAEQRHRELAAKAGGFNDFATLAVIFEQCKSSGAPASWCQKHWIHWRCLFSAFRVEAQLRELIRKLKQQSDFPKETFEGPKHEVLRRCLCAGYFKNVARRSVGRTFCTMDGRGSPVHIHPSSALHEQETKLEWIIFHEVLVTTKVYARIVCPIRYEWVRDLLPKLHEFNAHDLSSVARREVREDARRRWTNKENVKQLKDGISKDVLKKMQRRNDDKSISDARARFLERKQQRTQDHSDTRKETG [DHX40] | -0.176 | 51.7 | 50.2 | 0.738 | 1.62 | -0.071
5 | MSRGGSYPHLLWDVRKRSLGLEDPSRLRSRYLGRREFIQRLKLEATLNVHDGCVNTICWNDTGEYILSGSDDTKLVISNPYSRKVLTTIRSGHRANIFSAKFLPCTNDKQIVSCSGDGVIFYTNVEQDAETNRQCQFTCHYGTTYEIMTVPNDPYTFLSCGEDGTVRWFDTRIKTSCTKEDCKDDILINCRRAATSVAICPPIPYYLAVGCSDSSVRIYDRRMLGTRATGNYAGRGTTGMVARFIPSHLNNKSCRVTSLCYSEDGQEILVSYSSDYIYLFDPKDDTARELKTPSAEERREELRQPPVKRLRLRGDWSDTGPRARPESERERDGEQSPNVSLMQRMSDMLSRWFEEASEVAQSNRGRGRSRPRGGTSQSDISTLPTVPSSPDLEVSETAMEVDTPAEQFLQPSTSSTMSAQAHSTSSPTESPHSTPLLSSPDSEQRQSVEASGHHTHHQSDNNNEKLSPKPGTGEPVLSLHYSTEGTTTSTIKLNFTDEWSSIASSSRGIGSHCKSEGQEESFVPQSSVQPPEGDSETKAPEESSEDVTKYQEGVSAENPVENHINITQSDKFTAKPLDSNSGERNDLNLDRSCGVPEESASSEKAKEPETSDQTSTESATNENNTNPEPQFQTEATGPSAHEETSTRDSALQDTDDSDDDPVLIPGARYRAGPGDRRSAVARIQEFFRRRKERKEMEELDTLNIRRPLVKMVYKGHRNSRTMIKEANFWGANFVMSGSDCGHIFIWDRHTAEHLMLLEADNHVVNCLQPHPFDPILASSGIDYDIKIWSPLEESRIFNRKLADEVITRNELMLEETRNTITVPASFMLRMLASLNHIRADRLEGDRSEGSGQENENEDEE [DCAF6] | -0.176 | 54.7 | 54.9 | -1.47 | -2.02 | 0.0043
6 | MSRHEGVSCDACLKGNFRGRRYKCLICYDYDLCASCYESGATTTRHTTDHPMQCILTRVDFDLYYGGEAFSVEQPQSFTCPYCGKMGYTETSLQEHVTSEHAETSTEVICPICAALPGGDPNHVTDDFAAHLTLEHRAPRDLDESSGVRHVRRMFHPGRGLGGPRARRSNMHFTSSSTGGLSSSQSSYSPSNREAMDPIAELLSQLSGVRRSAGGQLNSSGPSASQLQQLQMQLQLERQHAQAARQQLETARNATRRTNTSSVTTTITQSTATTNIANTESSQQTLQNSQFLLTRLNDPKMSETERQSMESERADRSLFVQELLLSTLVREESSSSDEDDRGEMADFGAMGCVDIMPLDVALENLNLKESNKGNEPPPPPL [KCMF1] | -0.415 | 51.7 | – | -1.31 | -1.41 | 0.00437
7 | MSRLRALLGLGLLVAGSRVPRIKSQTIACRSGPTWWGPQRLNSGGRWDSEVMASTVVKYLSQEEAQAVDQELFNEYQFSVDQLMELAGLSCATAIAKAYPPTSMSRSPPTVLVICGPGNNGGDGLVCARHLKLFGYEPTIYYPKRPNKPLFTALVTQCQKMDIPFLGEMPAEPMTIDELYELVVDAIFGFSFKGDVREPFHSILSVLKGLTVPIASIDIPSGWDVEKGNAGGIQPDLLISLTAPKKSATQFTGRYHYLGGRFVPPALEKKYQLNLPPYPDTECVYRLQ [APOA1BP] | 0.462 | 56.4 | 55.3 | -2.06 | -3.77 | 0.417
8 | MSRRALRRLRGEQRGQEPLGPGALHFDLRDDDDAEEEGPKRELGVRRPGGAGKEGVRVNNRFELINIDDLEDDPVVNGERSGCALTDAVAPGNKGRGQRGNTESKTDGDDTETVPSEQSHASGKLRKKKKKQKNKKSSTGEASENGLEDIDRILERIEDSTGLNRPGPAPLSSRKHVLYVEHRHLNPDTELKRYFGARAILGEQRPRQRQRVYPKCTWLTTPKSTWPRYSKPGLSMRLLESKKGLSFFAFEHSEEYQQAQHKFLVAVESMEPNNIVVLLQTSPYHVDSLLQLSDACRFQEDQEMARDLVERALYSMECAFHPLFSLTSGACRLDYRRPENRSFYLALYKQMSFLEKRGCPRTALEYCKLILSLEPDEDPLCMLLLIDHLALRARNYEYLIRLFQEWEAHRNLSQLPNFAFSVPLAYFLLSQQTDLPECEQSSARQKASLLIQQALTMFPGVLLPLLESCSVRPDASVSSHRFFGPNAEISQPPALSQLVNLYLGRSHFLWKEPATMSWLEENVHEVLQAVDAGDPAVEACENRRKVLYQRAPRNIHRHVILSEIKEAVAALPPDVTTQSVMGFDPLPPSDTIYSYVRPERLSPISHGNTIALFFRSLLPNYTMEGERPEEGVAGGLNRNQGLNRLMLAVRDMMANFHLNDLEAPHEDDAEGEGEWD [TCF25] | 0.0319 | 49.4 | 48.4 | 0.666 | 0.63 | 0.0389
9 | MSSARFDSSDRSAWYMGPVSRQEAQTRLQGQRHGMFLVRDSSTCPGDYVLSVSENSRVSHYIINSLPNRRFKIGDQEFDHLPALLEFYKIHYLDTTTLIEPAPRYPSPPMGSVSAPNLPTAEDNLEYVRTLYDFPGNDAEDLPFKKGEILVIIEKPEEQWWSARNKDGRVGMIPVPYVEKLVRSSPHGKHGNRNSNSYGIPEPAHAYAQPQTTTPLPAVSGSPGAAITPLPSTQNGPVFAKAIQKRVPCAYDKTALALEVGDIVKVTRMNINGQWEGEVNGRKGLFPFTHVKIFDPQNPDENE [CRKL] | 0.543 | 53 | 53.4 | -0.327 | -0.418 | 0.0605
10 | MSSEEGKLFVGGLNFNTDEQALEDHFSSFGPISEVVVVKDRETQRSRGFGFITFTNPEHASVAMRAMNGESLDGRQIRVDHAGKSARGTRGGGFGAHGRGRSYSRGGGDQGYGSGRYYDSRPGGYGYGYGRSRDYNGRNQGGYDRYSGGNYRDNYDN [RBM3] | 0.11 | 54.2 | 52.7 | -2.01 | -4.74 | 0.436
11 | MSSEPPPPPQPPTHQASVGLLDTPRSRERSPSPLRGNVVPSPLPTRRTRTFSATVRASQGPVYKGVCKCFCRSKGHGFITPADGGPDIFLHISDVEGEYVPVEGDEVTYKMCSIPPKNEKLQAVEVVITHLAPGTKHETWSGHVISS [CARHSP1] | 0.691 | 54.7 | 55.2 | -0.479 | -0.699 | 0.089
